Experimental data taken from patent US20260049148.

Test system: internally quenched peptide probe (MCA)-Gly-Ser-Ala-Ile-Ala-Leu-Tyr-Gly-Gly-Ser-Lys (DNP)-D-Arg with CM AIALY (SEQ ID NO: 5)

human recombinant MMP9 (R&D Systems, catalog No: 911-MP), sequence (chain, as listed by the source): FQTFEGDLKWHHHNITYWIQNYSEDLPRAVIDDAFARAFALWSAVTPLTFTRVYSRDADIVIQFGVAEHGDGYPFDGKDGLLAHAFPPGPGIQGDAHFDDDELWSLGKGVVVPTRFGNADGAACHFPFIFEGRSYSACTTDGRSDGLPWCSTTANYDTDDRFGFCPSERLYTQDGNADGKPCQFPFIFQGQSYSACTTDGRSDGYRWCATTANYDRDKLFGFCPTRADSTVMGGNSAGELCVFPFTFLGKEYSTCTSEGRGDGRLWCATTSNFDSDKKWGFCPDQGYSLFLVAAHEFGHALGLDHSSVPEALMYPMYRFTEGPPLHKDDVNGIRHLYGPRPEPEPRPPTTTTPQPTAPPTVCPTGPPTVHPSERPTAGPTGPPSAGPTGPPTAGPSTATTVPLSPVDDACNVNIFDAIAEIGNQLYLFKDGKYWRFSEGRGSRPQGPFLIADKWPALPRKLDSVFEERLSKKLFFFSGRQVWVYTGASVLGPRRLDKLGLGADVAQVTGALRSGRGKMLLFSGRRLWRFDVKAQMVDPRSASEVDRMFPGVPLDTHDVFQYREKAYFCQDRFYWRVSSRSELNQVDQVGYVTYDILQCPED

Substance “human recombinant MMP9 (R&D Systems, catalog No: 911-MP)” has a Probe Cleavage (kcat/KM) of 41000 M⁻¹ s⁻¹ and a Probe Cleavage (pM/s) of 87.7 pM/s.
